The values that follow come from patent publication US20030092066A1, “Purified Stat proteins and methods of purifying thereof” (published 2003).

The target of data set [1] is tyrosine-phosphorylated human Stat1α (human) (UniProt P42224). As to the kind of experiment: cell-based or functional assay.
Data set [2] deals with nonphosphorylated human Stat1α (human) (UniProt P42224). As to the kind of experiment: cell-based or functional assay.
Data set [3] addresses tyrosine-phosphorylated Stat1tc, truncated Stat1 (132-713) (human) (UniProt P42224). As to the kind of experiment: cell-based or functional assay.
Data set [4] deals with T1, Stat1tc (Stat1 132-713, Tyr701-phosphorylated, NEM-alkylated) (Homo sapiens, UniProt P42224 SEQ:1-582).
T1 chain: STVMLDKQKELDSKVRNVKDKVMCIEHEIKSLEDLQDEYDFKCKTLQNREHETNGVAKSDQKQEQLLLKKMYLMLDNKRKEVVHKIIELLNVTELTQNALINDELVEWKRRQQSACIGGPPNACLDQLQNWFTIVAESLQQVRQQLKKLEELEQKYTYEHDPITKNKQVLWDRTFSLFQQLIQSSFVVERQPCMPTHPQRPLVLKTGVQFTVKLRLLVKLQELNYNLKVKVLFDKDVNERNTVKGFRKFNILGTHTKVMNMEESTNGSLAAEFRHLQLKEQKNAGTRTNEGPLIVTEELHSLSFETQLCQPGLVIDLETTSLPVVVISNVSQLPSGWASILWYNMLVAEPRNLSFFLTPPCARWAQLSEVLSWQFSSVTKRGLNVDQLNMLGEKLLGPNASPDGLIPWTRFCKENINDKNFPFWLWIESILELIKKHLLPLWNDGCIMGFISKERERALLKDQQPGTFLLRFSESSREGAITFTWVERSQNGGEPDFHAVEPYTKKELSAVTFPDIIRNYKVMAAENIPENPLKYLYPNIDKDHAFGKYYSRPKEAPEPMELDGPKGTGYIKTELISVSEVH
The data set can be described thus: EMSA; dimer and two-dimer complexes both displaced in <1 min; no stabilisation (lacks residues 1-131). Conditions: tags: none; E. coli; initiator Met absent; phosphorylated in vitro by EGF-receptor kinase; chain copies: 2 (stated, homodimer); label: 32P (Klenow fill-in); protruding 5'-TCC, filled in; two parallel sites. The protocol: FIG. 6A. Comparison of the dissociation rates of complexes containing DNA fragments with two consecutive binding sites (2×osWT, 10 bp apart) and Stat1α (right) or Stat1tc (left). 0.5×10⁻⁹ M dimer was prebound with 0.7×10⁻⁹ M radiolabelled DNA for 5 min at room temperature (lanes 1 and 8). After the addition of a 100-fold molar excess of unlabelled DNA at time point zero the reaction was further incubated for the times indicated before aliquots were loaded on a running polyacrylamide gel. At time zero two differently migrating complexes are visible, denoted “(2×(Dimer))” and “Dimer”. Unbound (free) DNA runs at the bottom of the gel.
Dissociation rate determination. Under the reaction conditions described above, each oligonucleotide (at 2×10⁻⁹ M or otherwise stated) was mixed with 0.55×10⁻⁹ M dimer of purified phosphorylated Stat1 protein. The reaction volume was scaled up to 100 μl. The reaction was incubated for 5-15 min at room temperature and for time zero, an aliquot (10 μl) was removed and loaded directly onto a pre-run polyacrylamide gel (see above). […] Gels were dried, exposed to X-ray film and labelled protein/DNA complexes and unbound labelled DNA were quantitated as described above. The half life was determined from a semi-log plot of the numerical data (shifted radioactivity over shifted radioactivity at time zero versus time). […]

Data set [5] deals with the molecule itself. The data set can be described thus: dimerization in solution, method not given.

For “tyrosine-phosphorylated human Stat1α (from UniProt P42224 1-750)”, in data set [1], the displacement of the [2×(dimeric)] complex on tandem DNA sites by excess unlabelled oligonucleotide is above 30 min.

In the case of “EGF-receptor from human carcinoma A431 cells (from UniProt P00533 25-1210)”, in data set [2], the percentage of Stat protein that was phosphorylated was below 75%.

In data set [3], “tyrosine-phosphorylated Stat1tc, truncated Stat1 (132-713) (from UniProt P42224 132-713)” showed a displacement of dimeric and [2×(dimeric)] complexes on tandem DNA sites by excess unlabelled oligonucleotide below 1 min.

B1: 2xcfosWT tandem, 10 bp spacing (dsDNA)
DNA 1: AGTCAGTTCCCGTCAATGCATCAGGTTCCCGTCAATGCAT
DNA 2: ATGCATTGACGGGAACCTGATGCATTGACGGGAACTGACT
Take B1: the binding result in data set [4] is “binds”.

B2: amino terminal domain of Stat1 (amino terminal 131 amino acids) (other)
chain: MSQWYELQQLDSKFLEQVHQLYDDSFPMEIRQYLAQWLEKQDWEHAANDVSFATIRFHDLLSQLDDQYSRFSLENNFLLQHNIRKSKRNLQDNFQEDPIQMSMIIYSCLKEERKILENAQRFNQAQSGNIQ
notes: also called 16 kDa fragment; N-terminal fragment
As for B2, the binding result in data set [5] was “binds”.
